Read-outs that look alike come from different tables or passages of the source.

The target of experiment [1] is T1, PDL1-hFc-Avi (Acro Biosystems, PDL-H82F2) (UniProt Q9NZQ7 19-238, biotinylated). Put plainly: ELISA: scFv captured at saturating level on anti-V5, titrated PDL1-hFc-Avi, streptavidin-HRP. For orientation: ELISA stands for enzyme-linked immunosorbent assay.
In experiment [2] the target is T2, AF33.
T2 construct: also called IL-15; IL15
In words: ELISA: scFv captured at saturating level on anti-V5, titrated biotinylated AF33 (IL-15 fusion), streptavidin-HRP.

In experiment [3] the target is T3, LRRC15-hFc (Sino Biologicals, 15786-H02H) (UniProt Q8TF66 22-538).
T3 construct: also called LRRC15-Fc
T3 sequence (looked up): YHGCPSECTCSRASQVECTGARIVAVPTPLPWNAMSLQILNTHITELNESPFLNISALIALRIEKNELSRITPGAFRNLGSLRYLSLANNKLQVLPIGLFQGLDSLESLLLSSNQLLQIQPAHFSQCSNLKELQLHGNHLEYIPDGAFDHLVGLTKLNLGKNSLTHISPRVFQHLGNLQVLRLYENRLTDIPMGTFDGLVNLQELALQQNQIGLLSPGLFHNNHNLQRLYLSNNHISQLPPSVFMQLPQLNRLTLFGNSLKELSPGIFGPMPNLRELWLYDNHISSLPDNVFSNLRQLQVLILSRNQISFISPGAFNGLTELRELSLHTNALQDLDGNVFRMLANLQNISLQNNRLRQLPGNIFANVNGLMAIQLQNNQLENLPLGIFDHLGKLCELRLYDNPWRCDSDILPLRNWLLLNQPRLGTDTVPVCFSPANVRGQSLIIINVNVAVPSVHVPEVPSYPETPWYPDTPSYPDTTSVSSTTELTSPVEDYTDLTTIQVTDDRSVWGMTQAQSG
In words: ELISA (Example 33): cell-free expressed scFv on LRRC15; x axis Log (concentration, nM).

Experiment [4] has as its target T1, PDL1-hFc-Avi (Acro Biosystems, …). In words: ELISA: scFv captured at saturating level on anti-V5, titrated PDL1-hFc-Avi, streptavidin-HRP. This is another data set of the same source.
Experiment [5] deals with T2, AF33. In words: ELISA: scFv captured at saturating level on anti-V5, titrated biotinylated AF33 (IL-15 fusion), streptavidin-HRP. This is another data set of the same source.
The next experiment concerns the target T4, AF3099.
T4 construct: IFNα-linker-DBA scFv variant complex
Put plainly: ELISA as in Example 9: dilution series of the IFN-scFv complex captured on anti-V5, probed with IFNAR2-Biotin with or without PD-L1, streptavidin-HRP.

B1: AF635 (scFv)
scFv: MSTSTEQKLISEEDLQVQLVQSGAEVKKPGASVKVSCKASGYTFTGYYIHWVRQAPGQGLEWMGIINPSGGSTRYAQKFQGRVTMTRDTSTSTVYMELSSLRSEDTAVYYCARSLFPTIFGVEVAFDIWGQGTLVTVSSASGGGGSGGGGSGGGGSHASDIQMTQSPSSLSASVGDRVTITCRASQSIRTYLNWYQQKPGKAPKLLIYSASNLQSGVPSRFSGSGSGTDFTLTISSLQPEDFATYYCQQANSFPFTFGPGTKVDIKGKPIPNPLLGLDST
Take B1: the binding result (in experiment [1]; with AF33 [2]) was “binds” in each case.

B2: i47_A11 (scFv)
scFv: MSTSTQVQLVQSGAEVKKPGSSVKVSCKASGYTFTSYDINWVRQAPGQGLEWMGTINPSDGDTTYAQKFQGRVTITADESTSTAYMELSSLRSEDTAVYYCARVGGWGIYYYYGMDVWGQGTLVTVSSASGGGGSGGGGSGGGGSHASDIQMTQSPSSLSASVGDRVTITCRASQSINSWLAWYQQKPGKAPKLLIYAASSLQSGVPSRFSGSGSGTDFTLTISSLQPEDFATYYCQQTYTVPFSFGQGTKLEIKRAAAGSGSEQKLISEEDLGKPIPNPLLGLDST
On to B2, for which the binding result in experiment [3] was “binds”.

B3: AF636 (scFv)
scFv: MSTSTEQKLISEEDLQVQLVQSGAEVKKPGASVKVSCKASGYSFTSYYLHWVRQAPGQGLEWMGRISPRSGGTKNAQNFQGRVTMTRDTSTSTVYMELSSLRSEDTAVYYCVRSLFPTIFGVEVAFDIWGQGTLVTVSSASGGGGSGGGGSGGGGSHASDIQMTQSPSSLSASVGDRVTITCRASQSISSWLAWYQQKPGKAPKLLIYYASSLQSGVPSRFSGSGSGTDFTLTISSLQPEDFATYYCQQGYQYPYTFGQGTKLEIKGKPIPNPLLGLDST
As for B3, the binding result (in experiment [4]; with AF33 [5]) was “binds” each time.

B4: IFNAR2-Biotin (receptor)
chain: ISYDSPDYTDESCTFKISLRNFRSILSWELKNHSIVPTHYTLLYTIMSKPEDLKVVKNCANTTRSFCDLTDEWRSTHEAYVTVLEGFSGNTTLFSCSHNFWLAIDMSFEPPEFEIVGFTNHINVMVKFPSIVEEELQFDLSLVIEEQSEGIVKKHKPEIKGNMSGNFTYIIDKLIPNTNYCVSVYLEHSDEQAVIKSPLKCTLLPPGQESESAESAK
modifications: biotinylated
notes: also called biotinylated interferon receptor (IFNAR2)
B4: the binding result with AF3099 is reported as “no binding (tested: 0.5 % IFN-scFv)”.
